In assay [1] the target is T1, human CD28 (human, UniProt P10747). The assay is described as follows: flow cytometry, Expi-CD28 cells. A general note: In flow cytometry, cells or beads pass a laser one at a time.
The next assay addresses T2, human TIGIT (human, UniProt Q495A1).
T2 sequence: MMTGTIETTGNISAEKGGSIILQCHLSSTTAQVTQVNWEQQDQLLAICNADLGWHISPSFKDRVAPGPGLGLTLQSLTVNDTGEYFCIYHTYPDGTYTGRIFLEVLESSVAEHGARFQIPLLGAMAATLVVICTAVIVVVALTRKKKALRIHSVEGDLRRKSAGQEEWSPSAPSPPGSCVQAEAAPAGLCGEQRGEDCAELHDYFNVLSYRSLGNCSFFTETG
The assay is described as follows: flow cytometry, Jurkat/IL-2/TIGIT cells.

Another assay deals with human CTLA-4 (human). The assay is described as follows: flow cytometry, CHO/CTLA-4 cells, 100 nM, anti-Flag.
human CTLA-4 (human), sequence (chain, as listed by the source): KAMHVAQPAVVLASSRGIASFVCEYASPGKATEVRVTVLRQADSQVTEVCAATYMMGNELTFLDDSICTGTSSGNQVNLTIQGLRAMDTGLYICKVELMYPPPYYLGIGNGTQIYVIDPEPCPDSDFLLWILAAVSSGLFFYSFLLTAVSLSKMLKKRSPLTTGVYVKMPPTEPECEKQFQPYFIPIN
For assay [2], the target named is T1, human CD28. The assay can be described thus: flow cytometry, Jurkat cells (endogenous CD28), 100 nM, anti-Flag.
Assay [3] addresses T3, human PD-1 (human, UniProt Q15116). The assay is described as follows: flow cytometry, CHO/PD-1 cells, 100 nM, anti-Flag.
Another assay concerns the target CD2 (Homo sapiens (Human), UniProt P06729). The assay is described as follows: flow cytometry, CHO-CD2 cells.
A further assay has as its target T4, CD80 (human).
T4 chain: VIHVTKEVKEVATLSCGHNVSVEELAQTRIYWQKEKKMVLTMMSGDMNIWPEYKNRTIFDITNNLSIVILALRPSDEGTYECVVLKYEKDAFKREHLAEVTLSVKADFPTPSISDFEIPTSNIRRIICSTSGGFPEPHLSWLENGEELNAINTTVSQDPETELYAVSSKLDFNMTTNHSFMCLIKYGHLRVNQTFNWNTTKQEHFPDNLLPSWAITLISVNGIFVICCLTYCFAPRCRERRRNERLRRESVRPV
The assay is described as follows: flow cytometry, CHO-CD80 cells.

In assay [4] the target is T3, human PD-1. The assay can be described thus: flow cytometry, Jurkat/IL-2/PD-1 cells.

Ten molecules from US20250163127A1 (published 2025) can be followed below.

B1: CD155 665-ICOSL 2264-ICOSL 2264-CD155 665 (other)
chain: WPPPGTGDVVVQAPTQVSGFLGDSVTLPCYLQVPNMEVTHVSQLTWARHGESGSMAVFHQTQGPWYAESKRLEFVAARLGAELRNASLRVFGLRAEDEGNYTCQFVTFPQRSRSVDIWLRVLGGGGSGGGGTGGGGSDTQEKEVRAMVGSDVELSCACPEGSRFDLNDVYVYWQTSESKTVVTYHIPQHSSLEYVDSRYRNRALMSPAGMLRGDFSLRLFNVTPQDEQKFHCLVLSRSLGFQEVLSVEVTLHVAANFSVGGGGSGGGGSGGGGSDTQEKEVRAMVGSDVELSCACPEGSRFDLNDVYVYWQTSESKTVVTYHIPQHSSLEYVDSRYRNRALMSPAGMLRGDFSLRLFNVTPQDEQKFHCLVLSRSLGFQEVLSVEVTLHVAANFSVGSGGSGGGGSGGGGSWPPPGTGDVVVQAPTQVSGFLGDSVTLPCYLQVPNMEVTHVSQLTWARHGESGSMAVFHQTQGPWYAESKRLEFVAARLGAELRNASLRVFGLRAEDEGNYTCQFVTFPQRSRSVDIWLRVLGSGGGGSDYKDDDDKHHHHHH
Consider B1, for which the values for the 50% effective concentration (EC50) with human CD28 [1] and with human TIGIT were 3.39 nM and 2.3 nM, respectively.

B2: PD-L2 1417-CD80 2616 (other)
chain: LFTVTVPKELYIIEQGSNVTLECNFDTGSHVNLGAITASLQKVENDASPHRERATLLEEQLPLGRALFHIPQVQVRDEGQYRCIIIYGDAWDYKYLTLKVKAGSGGSGGGGSGGGGSVIHVTKEVKEVATLSCGHNVSLEELAQTRIYWQKGKKMVLTMMSGDMNIWPEYKNRTIFDITNNLSIVILDPRPSDEGTYECVVLKYEKDAFKREHLAEVDYKDDDDKHHHHHH
Take B2: the values for the MFI in the assay with human CTLA-4, with human CD28 [2] and in the assay with human PD-1 [3] were 79.3, 89.2 and 20000, respectively.

B3: PD-L2 1417-CD80 2617 (other)
chain: LFTVTVPKELYIIEQGSNVTLECNFDTGSHVNLGAITASLQKVENDASPHRERATLLEEQLPLGRALFHIPQVQVRDEGQYRCIIIYGDAWDYKYLTLKVKAGSGGSGGGGSGGGGSVIHVTKEVKEVATLSCGHNVSVEELAQTRIYWQKGKKMVLTMMSGDMNIWPEYENRTIFDITNNLSIVILDPRPSDEGTYECVVLKYEKDAFKREHLAEVDYKDDDDKHHHHHH
In the case of B3, the MFI with human CTLA-4 is 85; with human CD28 [2], 94.2; with human PD-1 [3], 13700.

B4: CD80 2616-PD-L2 1417 (other)
chain: VIHVTKEVKEVATLSCGHNVSLEELAQTRIYWQKGKKMVLTMMSGDMNIWPEYKNRTIFDITNNLSIVILDPRPSDEGTYECVVLKYEKDAFKREHLAEVGSGGSGGGGSGGGGSLFTVTVPKELYIIEQGSNVTLECNFDTGSHVNLGAITASLQKVENDASPHRERATLLEEQLPLGRALFHIPQVQVRDEGQYRCIIIYGDAWDYKYLTLKVKADYKDDDDKHHHHHH
Consider B4, for which the MFI with human CTLA-4 is 82.5; with human CD28 [2] it was 92.2; with human PD-1 [3], 1520.

B5: CD80 2617-PD-L2 1417 (other)
chain: VIHVTKEVKEVATLSCGHNVSVEELAQTRIYWQKGKKMVLTMMSGDMNIWPEYENRTIFDITNNLSIVILDPRPSDEGTYECVVLKYEKDAFKREHLAEVGSGGSGGGGSGGGGSLFTVTVPKELYIIEQGSNVTLECNFDTGSHVNLGAITASLQKVENDASPHRERATLLEEQLPLGRALFHIPQVQVRDEGQYRCIIIYGDAWDYKYLTLKVKADYKDDDDKHHHHHH
With B5, the values for the MFI in the assay with human CTLA-4, in the assay with human CD28 [2] and with human PD-1 [3] were 75.5, 110 and 1390, respectively.

B6: CD58 3650-CD155 665-Fc (Fc fusion)
chain: SQQIYGVVYGNVTFHVPSNVPLKEVLWKKQKDKVAELENSEFRAFSSFKNRVYLDTVSGSLTIYNLTSSDEDEYEMESPNITDTMKFFLYVLESGGGGSGGGGSGGGGSWPPPGTGDVVVQAPTQVSGFLGDSVTLPCYLQVPNMEVTHVSQLTWARHGESGSMAVFHQTQGPWYAESKRLEFVAARLGAELRNASLRVFGLRAEDEGNYTCQFVTFPQRSRSVDIWLRVLGSGGGGSEPKSSDKTHTCPPCPAPEAEGAPSVFLFPPKPKDTLMISRTPEVTCVVVDVSHEDPEVKFNWYVDGVEVHNAKTKPREEQYNSTYRVVSVLTVLHQDWLNGKEYKCKVSNKALPAPIEKTISKAKGQPREPQVYTLPPSRDELTKNQVSLTCLVKGFYPSDIAVEWESNGQPENNYKTTPPVLDSDGSFFLYSKLTVDKSRWQQGNVFSCSVMHEALHNHYTQKSLSLSPG
For B6, the EC50 is 0.935 nM in the assay with CD2 and 1 nM with human TIGIT.

B7: CTLA-4 3060-CD155 665-Fc (Fc fusion)
chain: KAMHVAQPAVVFASSHGIASFVCEYASPWKATEVRVTVLRQADSQVTEVCAATYMTGNELTFLDDSICTGTSSGNQVNLTIQGLRAMDTGLYICKVEQMYPPPYLLGIGNGTQIYVIDPEPCPDSDGGGGSGGGGSGGGGSWPPPGTGDVVVQAPTQVSGFLGDSVTLPCYLQVPNMEVTHVSQLTWARHGESGSMAVFHQTQGPWYAESKRLEFVAARLGAELRNASLRVFGLRAEDEGNYTCQFVTFPQRSRSVDIWLRVLGSGGGGSEPKSSDKTHTCPPCPAPEAEGAPSVFLFPPKPKDTLMISRTPEVTCVVVDVSHEDPEVKFNWYVDGVEVHNAKTKPREEQYNSTYRVVSVLTVLHQDWLNGKEYKCKVSNKALPAPIEKTISKAKGQPREPQVYTLPPSRDELTKNQVSLTCLVKGFYPSDIAVEWESNGQPENNYKTTPPVLDSDGSFFLYSKLTVDKSRWQQGNVFSCSVMHEALHNHYTQKSLSLSPG
Consider B7, for which the 50% effective concentration (EC50) came out at 3.4 nM in the assay with human TIGIT and 1.8 nM with CD80.

B8: CD155 665-CD58 3650-Fc (Fc fusion)
chain: WPPPGTGDVVVQAPTQVSGFLGDSVTLPCYLQVPNMEVTHVSQLTWARHGESGSMAVFHQTQGPWYAESKRLEFVAARLGAELRNASLRVFGLRAEDEGNYTCQFVTFPQRSRSVDIWLRVLGGGGSGGGGSGGGGSSQQIYGVVYGNVTFHVPSNVPLKEVLWKKQKDKVAELENSEFRAFSSFKNRVYLDTVSGSLTIYNLTSSDEDEYEMESPNITDTMKFFLYVLESGSGGGGSEPKSSDKTHTCPPCPAPEAEGAPSVFLFPPKPKDTLMISRTPEVTCVVVDVSHEDPEVKFNWYVDGVEVHNAKTKPREEQYNSTYRVVSVLTVLHQDWLNGKEYKCKVSNKALPAPIEKTISKAKGQPREPQVYTLPPSRDELTKNQVSLTCLVKGFYPSDIAVEWESNGQPENNYKTTPPVLDSDGSFFLYSKLTVDKSRWQQGNVFSCSVMHEALHNHYTQKSLSLSPG
Turning to B8, the EC50 was found to be 0.845 nM with CD2 and 0.733 nM in the assay with human TIGIT.

B9: CD155 665-CTLA-4 3037-Fc (Fc fusion)
chain: WPPPGTGDVVVQAPTQVSGFLGDSVTLPCYLQVPNMEVTHVSQLTWARHGESGSMAVFHQTQGPWYAESKRLEFVAARLGAELRNASLRVFGLRAEDEGNYTCQFVTFPQRSRSVDIWLRVLGGGGSGGGGSGGGGSKAMHVAQPAVVFASSHGIASFVCEYASPWKATEVRVTVLRQADSQVTEVCAATYMTGNELTFLDDSICTGTSSGNQVNLTIQGLRAMDTGLYICKVEQMYPPPYLLGIGNGTQIYVIDPEPCPDSDGSGGGGSEPKSSDKTHTCPPCPAPEAEGAPSVFLFPPKPKDTLMISRTPEVTCVVVDVSHEDPEVKFNWYVDGVEVHNAKTKPREEQYNSTYRVVSVLTVLHQDWLNGKEYKCKVSNKALPAPIEKTISKAKGQPREPQVYTLPPSRDELTKNQVSLTCLVKGFYPSDIAVEWESNGQPENNYKTTPPVLDSDGSFFLYSKLTVDKSRWQQGNVFSCSVMHEALHNHYTQKSLSLSPG
For B9, the EC50 is 0.6 nM with human TIGIT and 4.1 nM with CD80.

B10: PD-L1 303-CD155 665-CTLA-4 3037-Fc (Fc fusion)
chain: FTVTVPKDLYVVEYGSNMTIECKFPVEKQLDLAALIVYWEMEGKDIIQFVHGEEDQKAQHSSYRQRARLLKDQLSLGNAALQITDVKLQDAGVYRCMISYGGGADYKRITVKVNAGGGGSGGGGSGGGGSWPPPGTGDVVVQAPTQVSGFLGDSVTLPCYLQVPNMEVTHVSQLTWARHGESGSMAVFHQTQGPWYAESKRLEFVAARLGAELRNASLRVFGLRAEDEGNYTCQFVTFPQRSRSVDIWLRVLGGGGSGGGGSGGGGSKAMHVAQPAVVFASSHGIASFVCEYASPWKATEVRVTVLRQADSQVTEVCAATYMTGNELTFLDDSICTGTSSGNQVNLTIQGLRAMDTGLYICKVEQMYPPPYLLGIGNGTQIYVIDPEPCPDSDGSGGGGSEPKSSDKTHTCPPCPAPEAEGAPSVFLFPPKPKDTLMISRTPEVTCVVVDVSHEDPEVKFNWYVDGVEVHNAKTKPREEQYNSTYRVVSVLTVLHQDWLNGKEYKCKVSNKALPAPIEKTISKAKGQPREPQVYTLPPSRDELTKNQVSLTCLVKGFYPSDIAVEWESNGQPENNYKTTPPVLDSDGSFFLYSKLTVDKSRWQQGNVFSCSVMHEALHNHYTQKSLSLSPG
Take B10: the EC50 was found to be 4.15 nM in the assay with human CD28 [1], 1.3 nM in the assay with human PD-1 [4], 1.6 nM in the assay with human TIGIT and 3.8 nM with CD80.

The term EC50 denotes the concentration giving half of the maximal effect. Higher therefore signals lower potency in that assay.
